Test results as given in the supplement of paper PMC9112550, “Optimization of the antimicrobial peptide Bac7 by deep mutational scanning” (BMC Biology, 2022).

System: Escherichia coli TOP10
Assay: shrunken log2 fold change of peptide-encoding DNA abundance (4.5 h post-induction vs induction); higher = less antimicrobial activity (less host growth inhibition)
Conditions: time post-induction: 4.5 h; library: site-saturation at positions 5, 18, 19, 20
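Also: peptides expressed intracellularly from a pBAD plasmid library in pooled LB shake-flask culture, induced with 0.3% L-arabinose, DNA abundance read by NGS, three biological replicates, DESeq2 with apeglm shrinkage.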

RRIRERPPRLPRPRPRPVWAPRP and RRIRIRPPRLPRPRPRPTGPPRP are within 0.2 log units of each other in “shrunken log2 fold change” value: 0.0658 for the first, -0.0249 for the second.

First: RRIRWRPPRLPRPRPRPHKWPRP
Second: RRIRMRPPRLPRPRPRPQPKPRP
The “shrunken log2 fold change” value of the first is lower: 0.18 for the first, 1.77 for the second.

RRIRRRPPRLPRPRPRPIMLPRP and RRIRIRPPRLPRPRPRPNVMPRP are within 0.2 log units of each other in “shrunken log2 fold change” value: -0.272 for the first, -0.328 for the second.

RRIRPRPPRLPRPRPRPVCIPRP and RRIRDRPPRLPRPRPRPKDFPRP are within 0.2 log units of each other in “shrunken log2 fold change” value: -0.122 for the first, -0.00804 for the second.

RRIRVRPPRLPRPRPRPMCYPRP and RRIRPRPPRLPRPRPRPIMIPRP are within 0.2 log units of each other in “shrunken log2 fold change” value: -0.306 for the first, -0.169 for the second.

RRIRERPPRLPRPRPRPNNHPRP and RRIRWRPPRLPRPRPRPIHYPRP are within 0.2 log units of each other in “shrunken log2 fold change” value: -0.933 for the first, -1.07 for the second.

Compared with RRIRDRPPRLPRPRPRPFGCPRP, RRIRPRPPRLPRPRPRPTPCPRP is higher in “shrunken log2 fold change” value: -0.109 for the first, 0.365 for the second.

Compared with RRIRIRPPRLPRPRPRPTPEPRP, RRIRCRPPRLPRPRPRPEDKPRP is lower in “shrunken log2 fold change” value: 0.232 for the first, -0.114 for the second.

RRIRYRPPRLPRPRPRPDDGPRP and RRIRARPPRLPRPRPRPEDNPRP are within 0.2 log units of each other in “shrunken log2 fold change” value: 0.0672 for the first, 0.132 for the second.

First: RRIRWRPPRLPRPRPRPSHHPRP
Second: RRIRYRPPRLPRPRPRPDSFPRP
The “shrunken log2 fold change” value of the first is lower: -0.3 for the first, 0.0025 for the second.

Going from RRIRSRPPRLPRPRPRPQKYPRP to RRIRSRPPRLPRPRPRPHWKPRP, the “shrunken log2 fold change” value rises from -0.428 to 0.0398.

Compared with RRIRHRPPRLPRPRPRPNMPPRP, RRIRDRPPRLPRPRPRPGSAPRP is higher in “shrunken log2 fold change” value: 0.0144 for the first, 0.238 for the second.

Going from RRIRNRPPRLPRPRPRPATYPRP to RRIRHRPPRLPRPRPRPMVLPRP, the “shrunken log2 fold change” value rises from -1.05 to -0.0459.

First: RRIRPRPPRLPRPRPRPCLQPRP
Second: RRIRYRPPRLPRPRPRPLGGPRP
The “shrunken log2 fold change” value of the first is lower: -0.631 for the first, -0.0546 for the second.

First: RRIRWRPPRLPRPRPRPVYMPRP
Second: RRIRQRPPRLPRPRPRPHCMPRP
The “shrunken log2 fold change” value of the first is lower: -0.476 for the first, -0.0175 for the second.

RRIRCRPPRLPRPRPRPCYIPRP and RRIRCRPPRLPRPRPRPMVDPRP are within 0.2 log units of each other in “shrunken log2 fold change” value: -0.0945 for the first, 0.02 for the second.

Compared with RRIRFRPPRLPRPRPRPHKEPRP, RRIRWRPPRLPRPRPRPTEKPRP is higher in “shrunken log2 fold change” value: -0.203 for the first, 0.103 for the second.

RRIRFRPPRLPRPRPRPDAMPRP and RRIRWRPPRLPRPRPRPRLSPRP are within 0.2 log units of each other in “shrunken log2 fold change” value: 0.138 for the first, 0.154 for the second.

Going from RRIRFRPPRLPRPRPRPPMRPRP to RRIRARPPRLPRPRPRPAYAPRP, the “shrunken log2 fold change” value falls from 1.05 to 0.476.

First: RRIRVRPPRLPRPRPRPPDPPRP
Second: RRIRARPPRLPRPRPRPSQQPRP
The “shrunken log2 fold change” value of the first is higher: 0.342 for the first, -0.0191 for the second.

First: RRIRCRPPRLPRPRPRPICHPRP
Second: RRIRFRPPRLPRPRPRPDLMPRP
The “shrunken log2 fold change” value of the first is higher: 1.48 for the first, -0.114 for the second.

Going from RRIRIRPPRLPRPRPRPHTRPRP to RRIRTRPPRLPRPRPRPVSTPRP, the “shrunken log2 fold change” value rises from -0.35 to 0.137.

First: RRIRARPPRLPRPRPRPVHPPRP
Second: RRIRERPPRLPRPRPRPERNPRP
The “shrunken log2 fold change” value of the first is higher: 0.217 for the first, -0.0672 for the second.

RRIRIRPPRLPRPRPRPANVPRP and RRIRGRPPRLPRPRPRPCYPPRP are within 0.2 log units of each other in “shrunken log2 fold change” value: -0.0188 for the first, 0.0523 for the second.

First: RRIRKRPPRLPRPRPRPMEEPRP
Second: RRIRKRPPRLPRPRPRPMCQPRP
The “shrunken log2 fold change” value of the first is higher: 0.371 for the first, -0.0286 for the second.

RRIRVRPPRLPRPRPRPYQYPRP and RRIRSRPPRLPRPRPRPDLDPRP are within 0.2 log units of each other in “shrunken log2 fold change” value: -0.0296 for the first, 0.152 for the second.

RRIRFRPPRLPRPRPRPVTWPRP and RRIRCRPPRLPRPRPRPWLAPRP are within 0.2 log units of each other in “shrunken log2 fold change” value: -0.271 for the first, -0.298 for the second.

Going from RRIRPRPPRLPRPRPRPHDEPRP to RRIRIRPPRLPRPRPRPRKIPRP, the “shrunken log2 fold change” value falls from -0.0869 to -0.413.

RRIRSRPPRLPRPRPRPNQVPRP and RRIRDRPPRLPRPRPRPCMDPRP are within 0.2 log units of each other in “shrunken log2 fold change” value: -0.0256 for the first, 0.0285 for the second.

RRIRMRPPRLPRPRPRPSGMPRP and RRIRERPPRLPRPRPRPSSCPRP are within 0.2 log units of each other in “shrunken log2 fold change” value: 0.03 for the first, -0.0232 for the second.

First: RRIRTRPPRLPRPRPRPAPEPRP
Second: RRIRHRPPRLPRPRPRPIWFPRP
The “shrunken log2 fold change” value of the first is lower: 0.24 for the first, 1.65 for the second.

RRIRLRPPRLPRPRPRPSRRPRP and RRIRMRPPRLPRPRPRPYHAPRP are within 0.2 log units of each other in “shrunken log2 fold change” value: -0.332 for the first, -0.387 for the second.

RRIRMRPPRLPRPRPRPTSHPRP and RRIRYRPPRLPRPRPRPVELPRP are within 0.2 log units of each other in “shrunken log2 fold change” value: 0.0149 for the first, -0.151 for the second.

RRIRKRPPRLPRPRPRPMLDPRP and RRIRQRPPRLPRPRPRPADIPRP are within 0.2 log units of each other in “shrunken log2 fold change” value: 0.16 for the first, -0.01 for the second.

RRIRNRPPRLPRPRPRPINLPRP and RRIRMRPPRLPRPRPRPHYYPRP are within 0.2 log units of each other in “shrunken log2 fold change” value: -0.176 for the first, -0.061 for the second.

First: RRIRLRPPRLPRPRPRPGCMPRP
Second: RRIRARPPRLPRPRPRPLLGPRP
The “shrunken log2 fold change” value of the first is lower: 0.646 for the first, 1.07 for the second.

RRIRDRPPRLPRPRPRPRVWPRP and RRIRRRPPRLPRPRPRPSALPRP are within 0.2 log units of each other in “shrunken log2 fold change” value: 0.352 for the first, 0.392 for the second.

RRIRVRPPRLPRPRPRPFATPRP and RRIRFRPPRLPRPRPRPFGEPRP are within 0.2 log units of each other in “shrunken log2 fold change” value: 0.276 for the first, 0.135 for the second.

RRIRRRPPRLPRPRPRPHRRPRP and RRIRGRPPRLPRPRPRPWKRPRP are within 0.2 log units of each other in “shrunken log2 fold change” value: -0.000685 for the first, -0.0496 for the second.

RRIRKRPPRLPRPRPRPSQSPRP and RRIRSRPPRLPRPRPRPWCWPRP are within 0.2 log units of each other in “shrunken log2 fold change” value: 0.28 for the first, 0.0877 for the second.

Going from RRIRWRPPRLPRPRPRPATFPRP to RRIRVRPPRLPRPRPRPSYGPRP, the “shrunken log2 fold change” value falls from 0.311 to -0.369.

Going from RRIRNRPPRLPRPRPRPLYLPRP to RRIRFRPPRLPRPRPRPRWGPRP, the “shrunken log2 fold change” value rises from -0.54 to 0.143.

First: RRIRMRPPRLPRPRPRPNRGPRP
Second: RRIRDRPPRLPRPRPRPNEKPRP
The “shrunken log2 fold change” value of the first is higher: 0.218 for the first, -0.0281 for the second.

Compared with RRIRGRPPRLPRPRPRPKIEPRP, RRIRFRPPRLPRPRPRPHQEPRP is lower in “shrunken log2 fold change” value: 0.566 for the first, -0.0079 for the second.

First: RRIRERPPRLPRPRPRPCFIPRP
Second: RRIRGRPPRLPRPRPRPFLIPRP
The “shrunken log2 fold change” value of the first is lower: -0.73 for the first, -0.0796 for the second.

RRIRIRPPRLPRPRPRPHQGPRP and RRIRYRPPRLPRPRPRPRGSPRP are within 0.2 log units of each other in “shrunken log2 fold change” value: -0.117 for the first, -0.285 for the second.

Going from RRIRKRPPRLPRPRPRPRAHPRP to RRIRNRPPRLPRPRPRPYWCPRP, the “shrunken log2 fold change” value falls from 0.68 to -0.00264.

Going from RRIRCRPPRLPRPRPRPAMVPRP to RRIRSRPPRLPRPRPRPVGHPRP, the “shrunken log2 fold change” value falls from 0.204 to -0.376.

Going from RRIRKRPPRLPRPRPRPRFAPRP to RRIRERPPRLPRPRPRPHVWPRP, the “shrunken log2 fold change” value falls from 0.614 to 0.191.

RRIRTRPPRLPRPRPRPPYKPRP and RRIRFRPPRLPRPRPRPCTYPRP are within 0.2 log units of each other in “shrunken log2 fold change” value: -0.294 for the first, -0.384 for the second.

First: RRIRKRPPRLPRPRPRPTFGPRP
Second: RRIRKRPPRLPRPRPRPHPLPRP
The “shrunken log2 fold change” value of the first is lower: 0.0674 for the first, 0.393 for the second.

Compared with RRIRYRPPRLPRPRPRPWYCPRP, RRIRERPPRLPRPRPRPIQYPRP is higher in “shrunken log2 fold change” value: -1.12 for the first, -0.163 for the second.

RRIRTRPPRLPRPRPRPSNVPRP and RRIRHRPPRLPRPRPRPEIYPRP are within 0.2 log units of each other in “shrunken log2 fold change” value: -0.337 for the first, -0.413 for the second.

First: RRIRARPPRLPRPRPRPTRNPRP
Second: RRIRKRPPRLPRPRPRPQFQPRP
The “shrunken log2 fold change” value of the first is higher: 0.657 for the first, -0.0733 for the second.

In the case of RRIRGRPPRLPRPRPRPMYKPRP, the “shrunken log2 fold change” value is reported as 0.0271.
